Measured values from article PMC13579936, “Walking the tightrope: Balancing opposing cooperativities in dynein assembly” (The Journal of Biological Chemistry, 2026).

T1: TI: Tctex1 homodimer with one IC chain bound (half-bound) (D. melanogaster, UniProt Q94524 1-111; Q24246 84-143)
T1 construct: dynein light chain Tctex1, D. melanogaster; as the chain of m3; cytoplasmic dynein intermediate chain, D. melanogaster, construct ICTL; as the chain of m1; source: formed from the purified proteins m1 and m3 in the ITC samples; copies: 2 + 1
T1 sequence 1: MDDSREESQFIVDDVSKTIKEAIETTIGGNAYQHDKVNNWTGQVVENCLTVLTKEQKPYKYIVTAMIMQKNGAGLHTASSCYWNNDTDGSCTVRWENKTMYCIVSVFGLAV
T1 sequence 2: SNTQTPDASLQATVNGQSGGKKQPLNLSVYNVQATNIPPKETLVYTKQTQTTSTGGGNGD

T2: TII: Tctex1 homodimer with two IC chains bound (D. melanogaster, UniProt Q94524 1-111; Q24246 84-143)
T2 construct: dynein light chain Tctex1, D. melanogaster; as the chain of m3; cytoplasmic dynein intermediate chain, D. melanogaster, construct ICTL; as the chain of m1; source: formed from the purified proteins m1 and m3 in the ITC samples; copies: 2 + 2
T2 sequence 1: T1 sequence 1
T2 sequence 2: T1 sequence 2

B1: D. melanogaster dynein light chain Tctex1 (homodimer) (natural protein)
chain: T1 sequence 1
notes: dynein light chain Tctex1, D. melanogaster; homodimer; source: purity verified by SDS-PAGE and size-exclusion chromatography
B2: D. melanogaster dynein light chain LC8 (homodimer) (natural protein)
chain: MSDRKAVIKNADMSEEMQQDAVDCATQALEKYNIEKDIAAYIKKEFDKKYNPTWHCIVGRNFGSYVTHETRHFIYFYLGQVAILLFKSG
notes: dynein light chain LC8, D. melanogaster; homodimer; source: purity verified by SDS-PAGE and size-exclusion chromatography
B3: D. melanogaster dynein intermediate chain ICTL (domain or fragment, UniProt Q24246 84-143, looked up)
chain: T1 sequence 2
notes: cytoplasmic dynein intermediate chain (IC), D. melanogaster; source: purity verified by SDS-PAGE and size-exclusion chromatography

Legend:
Assay in all cases: ITC; VP-ITC, 25 °C; 50 mM sodium phosphate, 50 mM sodium chloride, 1 mM sodium azide, pH 7.5; 39 isotherms of eight experiment types (IC in cell or in syringe, two- and three-protein titrations, dissociation; 27 from ref. 8, 12 new) fitted globally to a seven-state model by hierarchical Bayesian inference
[1] = target: T3, LI: LC8 homodimer with one IC chain bound (half-bound) (D. melanogaster, UniProt Q24117 1-89; Q24246 84-143); conditions: both partners purified
T3 construct: dynein light chain LC8, D. melanogaster; as the chain of m2; cytoplasmic dynein intermediate chain, D. melanogaster, construct ICTL; as the chain of m1; source: formed from the purified proteins m1 and m2 in the ITC samples; copies: 2 + 1

[2] = target: T4, LII: LC8 homodimer with two IC chains bound (D. melanogaster, UniProt Q24117 1-89; Q24246 84-143); conditions: both partners purified
T4 construct: dynein light chain LC8, D. melanogaster; as the chain of m2; cytoplasmic dynein intermediate chain, D. melanogaster, construct ICTL; as the chain of m1; source: formed from the purified proteins m1 and m2 in the ITC samples; copies: 2 + 2

[3] = target: T1, TI: Tctex1 homodimer with one IC chain …; conditions: both partners purified
[4] = target: T2, TII: Tctex1 homodimer with two IC …; conditions: both partners purified
[5] = target: TILI: one IC chain with a half-bound Tctex1 homodimer and a half-bound LC8 homodimer (D. melanogaster) (UniProt Q94524)
[6] = target: B2; conditions: both partners purified
[7] = target: B1; conditions: both partners purified

Binder: B1
- dH [1]: -4.7 kcal/mol
- dH [2]: -7.72 kcal/mol

Binder: B2
- dH [3]: -12.7 kcal/mol
- dH [4]: -25.8 kcal/mol

Binder: B3
- dH [5]: -18.1 kcal/mol
- dH, first IC on the LC8 dimer (state LI) [6]: -14.8 kcal/mol
- dH, second IC on the LC8 dimer (LI to LII) [6]: -15.1 kcal/mol
- dH, first IC on the Tctex1 dimer (state TI) [7]: -6.76 kcal/mol
- dH, second IC on the Tctex1 dimer (TI to TII) [7]: -4.97 kcal/mol
